The values that follow are results of earlier work, collected in article PMC6191370.

One may read the Kd as the free concentration of one partner at which half of the binding sites on the other are occupied at equilibrium, for simple one-to-one binding.

In series [1] the target is intermediate-affinity IL-2R (beta/gamma chains) (Homo sapiens) (UniProt P14784).
The target of another series is CD25 (Homo sapiens) (UniProt P01589).
Sequence of UniProt P01589 (P01589 22-240): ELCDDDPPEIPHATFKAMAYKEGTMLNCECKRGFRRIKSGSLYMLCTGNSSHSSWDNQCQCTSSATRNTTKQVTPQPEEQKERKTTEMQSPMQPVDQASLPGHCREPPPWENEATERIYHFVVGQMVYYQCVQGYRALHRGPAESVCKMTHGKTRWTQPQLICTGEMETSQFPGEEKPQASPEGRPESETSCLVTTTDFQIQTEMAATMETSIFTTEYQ

Sequence of UniProt P14784 (P14784 27-240, chain 1 of 2): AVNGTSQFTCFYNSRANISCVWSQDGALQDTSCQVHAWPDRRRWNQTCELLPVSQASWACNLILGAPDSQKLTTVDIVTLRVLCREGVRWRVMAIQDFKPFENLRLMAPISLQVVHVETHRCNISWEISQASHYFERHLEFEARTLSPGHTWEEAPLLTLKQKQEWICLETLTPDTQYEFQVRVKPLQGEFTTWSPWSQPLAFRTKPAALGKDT
Sequence of UniProt P14784 (P31785 23-262, chain 2 of 2, further chain): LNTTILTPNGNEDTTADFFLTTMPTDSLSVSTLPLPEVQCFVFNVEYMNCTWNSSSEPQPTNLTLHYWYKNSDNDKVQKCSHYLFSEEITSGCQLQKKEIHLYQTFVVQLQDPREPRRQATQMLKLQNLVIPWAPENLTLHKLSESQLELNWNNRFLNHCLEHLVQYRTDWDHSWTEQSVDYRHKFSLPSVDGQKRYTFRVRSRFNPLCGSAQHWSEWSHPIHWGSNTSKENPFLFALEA

In the case of IL-2 (from UniProt P60568), the figures for the Kd (in series [1]; in the series with CD25 (Homo sapiens)) were 1 nM and 10 nM, respectively.
